Source: article PMC11560669 (Angewandte Chemie (International ed. in English), 2024)
Read-outs that look alike come from different tables or passages of the source. Each block holds one molecule with its values, some of them ahead of it.

Assays:
MBP-Z(6Y) = assay: cross-linking
MBP-Z(6H) = assay: cross-linking
MBP-Z(6K) = assay: cross-linking
[1] = target: extracellular domain (ECD) of human epidermal growth factor receptor (EGFR) (human) (UniProt P00533); assay: cross-linking
[2] = target: extracellular domain (ECD) of human epidermal growth factor receptor 2 (HER2) (human) (UniProt P04626); assay: cross-linking
[3] = target: extracellular domain (ECD) of human epidermal growth factor receptor 2 (HER2) (human) (UniProt P04626); assay: cross-linking; remark: listed apart in the source
[4] = target: extracellular domain (ECD) of human epidermal growth factor receptor 2 (HER2) (human) (UniProt P04626); assay: cross-linking; remark: listed apart in the source
[5] = target: extracellular domain (ECD) of human epidermal growth factor receptor 2 (HER2) (Homo sapiens, UniProt P04626); assay: ELISA

Molecule: Zspa affibody Afb(36FSY/F32R) (designed binder)
fold change of cross-linking rate against Afb(36FSY) (MBP-Z(6Y)): 10.5 fold
fold change of cross-linking yield at 16 h against Afb(36FSY) (MBP-Z(6Y)): 7.9 fold
fold change of cross-linking rate against Afb(36FSY) (MBP-Z(6H)): 3.7 fold
fold change of cross-linking yield at 16 h against Afb(36FSY) (MBP-Z(6H)): 2.9 fold
fold change of cross-linking rate against Afb(36FSY) (MBP-Z(6K)): 3.4 fold
fold change of cross-linking yield at 16 h against Afb(36FSY) (MBP-Z(6K)): 2.3 fold

Molecule: Zspa affibody Afb(36PFY/F32R) (designed binder)
kobs of cross-linking (MBP-Z(6Y)): 0.0218 h⁻¹
percent increase of the PFEx cross-linking rate against Afb(36PFY) (MBP-Z(6H)): 44%

fold change of kobs of cross-linking against 7D12(Y109FSY)-C21 [1]: 2.5 fold
Molecule: covalent NK engager 7D12(Y109FSY/E44R)-C21 (bispecific antibody)

kobs of cross-linking [2]: 0.568 h⁻¹
Molecule: nanobody 2rs15d(D54FSY) (VHH)

fold change of kobs of cross-linking against 2rs15d(D54FSY) at pH 6.0 [3]: 10.7 fold
kobs of cross-linking [3]: 0.705 h⁻¹
fold change of kobs of cross-linking against 2rs15d(D54FSY) at pH 6.5 [4]: 6.6 fold
kobs of cross-linking [4]: 0.888 h⁻¹
kobs of cross-linking [2]: 1.96 h⁻¹
Molecule: nanobody 2rs15d(D54FSY/D56R) (VHH)

kobs of cross-linking [1]: 0.66 h⁻¹
Molecule: nanobody 7D12(Y109FFY/E44R) (VHH)

kobs of cross-linking [1]: 0.342 h⁻¹
Molecule: nanobody 7D12(Y109FSY/E44R) (VHH)

fold change of kobs of cross-linking against 7D12(Y109mFSY) [1]: 1.9 fold
Molecule: nanobody 7D12(Y109mFSY/E44R) (VHH)

binding result [5]: binds
B1: nanobody 2rs15d(D54Y) with the Arg mutation at G53 (VHH)
VHH: QVQLQESGGGSVQAGGSLKLTCAASGYIFNSCGMGWYRQSPGRERELVSRISRYGDTWHKESVKGRFTISQDNVKKTLYLQMNSLKPEDTAVYFCAVCYNLETYWGQGTQVTVSS

binding result [5]: binds
B2: nanobody 2rs15d(D54Y) with the Arg mutation at G55 (VHH)
VHH: QVQLQESGGGSVQAGGSLKLTCAASGYIFNSCGMGWYRQSPGRERELVSRISGYRDTWHKESVKGRFTISQDNVKKTLYLQMNSLKPEDTAVYFCAVCYNLETYWGQGTQVTVSS

fold decrease of binding affinity against 2rs15d(D54Y) [5]: 14 fold
B3: nanobody 2rs15d(D54Y) with the Arg mutation at D56 (VHH)
VHH: QVQLQESGGGSVQAGGSLKLTCAASGYIFNSCGMGWYRQSPGRERELVSRISGYGRTWHKESVKGRFTISQDNVKKTLYLQMNSLKPEDTAVYFCAVCYNLETYWGQGTQVTVSS
